{
  "source": "paper PMC7732191",
  "about": "(Science Advances, 2020)",
  "molecular_target": "the molecule itself",
  "assay": "cryo-EM structure",
  "data": [
    {"protein": "full-length human KCC2a (potassium-chloride cotransporter 2, SLC12A5) (natural protein, UniProt Q9H2X9-1 1-1139, looked up, N-acetylglucosamine (glycosylation) at multiple Asn residues of the ECD) MSRRFTVTSLPPAGPARSPDPESRRHSVADPRHLPGEDVKGDGNPKESSPFINSTDTEKGKEYDGKNMALFEEEMDTSPMVSSLLSGLANYTNLPQGSREHEEAENNEGGKKKPVQAPRMGTFMGVYLPCLQNIFGVILFLRLTWVVGIAGIMESFCMVFICCSCTMLTAISMSAIATNGVVPAGGSYYMISRSLGPEFGGAVGLCFYLGTTFAGAMYILGTIEILLAYLFPAMAIFKAEDASGEAAAMLNNMRVYGTCVLTCMATVVFVGVKYVNKFALVFLGCVILSILAIYAGVIKSAFDPPNFPICLLGNRTLSRHGFDVCAKLAWEGNETVTTRLWGLFCSSRFLNATCDEYFTRNNVTEIQGIPGAASGLIKENLWSSYLTKGVIVERSGMTSVGLADGTPIDMDHPYVFSDMTSYFTLLVGIYFPSVTGIMAGSNRSGDLRDAQKSIPTGTILAIATTSAVYISSVVLFGACIEGVVLRDKFGEAVNGNLVVGTLAWPSPWVIVIGSFFSTCGAGLQSLTGAPRLLQAISRDGIVPFLQVFGHGKANGEPTWALLLTACICEIGILIASLDEVAPILSMFFLMCYMFVNLACAVQTLLRTPNWRPRFRYYHWTLSFLGMSLCLALMFICSWYYALVAMLIAGLIYKYIEYRGAEKEWGDGIRGLSLSAARYALLRLEEGPPHTKNWRPQLLVLVRVDQDQNVVHPQLLSLTSQLKAGKGLTIVGSVLEGTFLENHPQAQRAEESIRRLMEAEKVKGFCQVVISSNLRDGVSHLIQSGGLGGLQHNTVLVGWPRNWRQKEDHQTWRNFIELVRETTAGHLALLVTKNVSMFPGNPERFSEGSIDVWWIVHDGGMLMLLPFLLRHHKVWRKCKMRIFTVAQMDDNSIQMKKDLTTFLYHLRITAEVEVVEMHESDISAYTYEKTLVMEQRSQILKQMHLTKNEREREIQSITDESRGSIRRKNPANTRLRLNVPEETAGDSEEKPEEEVQLIHDQSAPSCPSSSPSPGEEPEGEGETDPEKVHLTWTKDKSVAEKNKGPSPVSSEGIKDFFSMKPEWENLNQSNVRRMHTAVRLNEVIVKKSRDAKLVLLNMPGPPRNRNGDENYMEFLEVLTEHLDRVMLVRGGGREVITIYS", "values": [
      {"measurement": "stoichiometry N", "result": 2}
    ]}
  ]
}
